Measurements taken from patent publication US20220363781A1.
pEC50, pIC50, pKd: −log10 of the molar value. Like-named read-outs stand apart in the source and are kept apart here.

Columns and labels:
human TSLP-His (human) [1] = biological target: human TSLP-His (human) (UniProt Q969D9); assay: ELISA, human TSLP-His coated, antibody titrated
human TSLP-His (human) [2] = biological target: human TSLP-His (human) (UniProt Q969D9); assay: cell-based or functional assay
human TSLP-His (human) [3] = biological target: human TSLP-His (human) (UniProt Q969D9); assay: cell-based or functional assay; remark: listed apart in the source
human TSLP-His (human) [4] = biological target: human TSLP-His (human) (UniProt Q969D9); assay: BLI (Fortebio), antibody on ProA sensor, human TSLP titrated, 1:1 model
human TSLP-His (human) [5] = biological target: human TSLP-His (human) (UniProt Q969D9); assay: competitive ELISA, hIL7Rα-hTSLPR-hFc coated, hTSLP-His plus titrated antibody, anti-His-HRP
human TSLP-His (human) [6] = biological target: human TSLP-His (human) (UniProt Q969D9); assay: ELISA, human TSLP-His coated, antibody titrated, anti-human Fc-HRP
human TSLP-His (human) [7] = biological target: human TSLP-His (human) (UniProt Q969D9); assay: BLI (Fortebio), antibody on ProA sensor, human TSLP 1.5625-100 nM, 1:1 model
human TSLP-His (human) [8] = biological target: human TSLP-His (human) (UniProt Q969D9); assay: ELISA, human TSLP-His coated on the plate, serially diluted antibody, HRP goat anti-human Fc, absorbance at 450 nm
FcRn (biotin-labeled) = assay: BLI (Fortebio), biotin-FcRn on SA sensor, antibody 1.5625-200 nM, pH 6.0, 1:1 model
[9] = biological target: monkey TSLP-His (cynomolgus monkey, Macaca fascicularis) (cynomolgus monkey (Macaca fascicularis)); assay: ELISA, monkey TSLP-His coated, antibody titrated
Sequence of monkey TSLP-His (cynomolgus monkey, Macaca fascicularis) (cynomolgus monkey (Macaca fascicularis)) (chain, as listed by the source): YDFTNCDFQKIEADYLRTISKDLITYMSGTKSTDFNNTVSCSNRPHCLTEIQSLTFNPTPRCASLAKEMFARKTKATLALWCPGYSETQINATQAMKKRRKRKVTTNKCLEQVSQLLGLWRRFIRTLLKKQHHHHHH

[10] = biological target: monkey TSLP-His (cynomolgus monkey, Macaca fascicularis) (cynomolgus monkey (Macaca fascicularis)); assay: ELISA, monkey TSLP-His coated, antibody titrated, anti-human Fc-HRP
[11] = biological target: monkey TSLP-His (cynomolgus monkey, Macaca fascicularis) (cynomolgus monkey (Macaca fascicularis)); assay: BLI (Fortebio), antibody on ProA sensor, monkey TSLP 1.5625-100 nM, 1:1 model

Sequence of human TSLP-His (human) (Q969D9 other isoform, or with tags, fused parts or gaps limits assumed): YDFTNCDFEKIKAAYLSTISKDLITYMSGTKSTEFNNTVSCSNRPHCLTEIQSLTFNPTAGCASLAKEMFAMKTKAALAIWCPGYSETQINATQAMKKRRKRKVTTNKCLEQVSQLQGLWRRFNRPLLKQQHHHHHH

- pEC50 (human TSLP-His (human) [1]): 9.63
- hTSLP EC50, inhibition of the proliferation of Ba/F3-hTSLPR-hIL7Rα cells (human TSLP-His (human) [2]): 570 pM
- EC50, blocking human TSLP-induced proliferation of Ba/F3-hTSLPR-hIL7Rα cells (CCK8) (human TSLP-His (human) [3]): 50 pM
- EC50, inhibition of human TSLP-induced PBMC secretion of MDC (human TSLP-His (human) [3]): 5.63 pM
- EC50, inhibition of human TSLP-induced PBMC secretion of TARC (human TSLP-His (human) [3]): 510 pM
- hTSLP EC50, inhibition of the proliferation of Ba/F3-hTSLPR-hIL7Rα cells (human TSLP-His (human) [3]): 41 pM
- pKd (human TSLP-His (human) [4]): 9.43
- pIC50 (human TSLP-His (human) [5]): 9.03
- pEC50 (human TSLP-His (human) [6]): 8.85
- pKd (human TSLP-His (human) [7]): 9.10
- EC50 (read off the curve) (human TSLP-His (human) [8]): 0.4 µg/mL
- pKd (FcRn (biotin-labeled)): 7.95
- pEC50 [9]: 9.47
- pEC50 [10]: 9.72
- pKd [11]: 8.94
Substance: Control antibody (control anti-TSLP antibody, chEMBL ID CHEMBL3707229)
